Measured values taken from patent publication US20100222408A1 (Johns Hopkins, published 2010).

What was measured:
[1] = biological target: T1, p97/valosin-containing protein (human, UniProt P55072 2-806); assay: co-immunoprecipitation from bronchial brushings of ΔF508 CF subjects (IP gp78, immunoblot VCP)
T1 construct: Endogenous protein detected by immunoblot in immunoprecipitates; also called VCP; VCP/p97
Method: (§1) Cells were lysed directly on plates using M-PER (Pierce Biotech. Inc., Rockford, Ill.) protein lysis buffer containing protease inhibitor cocktail (Roche) after three washes with ice cold PBS. CF bronchial brushings were transferred to lysis buffer. For immunoprecipitation, 500 μg/ml (cell culture)/50 μg/ml (bronchial brushings) total protein extracts were incubated with 50 μl of protein A/G agarose beads (Santa Cruz Biotechnology Inc., Santa Cruz, Calif.) for 3 hours at 4° C. After preclearing, 5 μg of respective primary antibody or pre-immune sera (negative control) was added to each tube. After 1 hour, protein A/G agarose beads (50 μL) were added to each tube and tubes were incubated overnight at 4° C. Beads were washed once with lysis buffer (20 mM Tris-HC1 [pH 7.6], 150 mM NaCl, 0.5% Triton X-100 and 10 μM phenylmethylsulfonyl fluoride [PMSF]) followed with two washes with phosphate buffer saline (PBS). The beads were suspended in Laemmli's sample buffer (30 μL) containing β-mercaptoethanol, vortexed for 1 minute, resolved by 4-10% SDS-PAGE and transferred to a 0.4-μm pore size nitrocellulose membrane.

Hsc70 = Hsc70 (human, UniProt P11142 2-646); assay: co-immunoprecipitation from bronchial brushings of ΔF508 CF subjects (IP gp78, immunoblot Hsc70)
Chain of Hsc70 (P11142 2-646 limits assumed): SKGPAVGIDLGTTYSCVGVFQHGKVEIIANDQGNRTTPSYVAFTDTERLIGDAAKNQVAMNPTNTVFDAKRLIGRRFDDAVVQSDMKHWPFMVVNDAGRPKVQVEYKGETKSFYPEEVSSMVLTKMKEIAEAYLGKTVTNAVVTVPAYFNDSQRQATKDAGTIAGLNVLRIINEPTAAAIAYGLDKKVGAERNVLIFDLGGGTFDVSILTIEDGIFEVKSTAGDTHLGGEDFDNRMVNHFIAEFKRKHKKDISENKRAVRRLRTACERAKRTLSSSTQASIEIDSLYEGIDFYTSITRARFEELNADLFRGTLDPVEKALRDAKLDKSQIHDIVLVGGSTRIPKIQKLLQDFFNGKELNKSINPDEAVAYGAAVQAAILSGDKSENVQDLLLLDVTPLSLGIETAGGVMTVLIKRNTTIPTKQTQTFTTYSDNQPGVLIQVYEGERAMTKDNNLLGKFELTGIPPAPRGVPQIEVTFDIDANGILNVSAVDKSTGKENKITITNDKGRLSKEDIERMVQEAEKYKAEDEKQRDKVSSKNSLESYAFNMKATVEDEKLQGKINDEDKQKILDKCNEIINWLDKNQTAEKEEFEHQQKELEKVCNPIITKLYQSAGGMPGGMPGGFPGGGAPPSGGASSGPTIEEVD
Method: as §1

T1 sequence (P55072 2-806 limits assumed): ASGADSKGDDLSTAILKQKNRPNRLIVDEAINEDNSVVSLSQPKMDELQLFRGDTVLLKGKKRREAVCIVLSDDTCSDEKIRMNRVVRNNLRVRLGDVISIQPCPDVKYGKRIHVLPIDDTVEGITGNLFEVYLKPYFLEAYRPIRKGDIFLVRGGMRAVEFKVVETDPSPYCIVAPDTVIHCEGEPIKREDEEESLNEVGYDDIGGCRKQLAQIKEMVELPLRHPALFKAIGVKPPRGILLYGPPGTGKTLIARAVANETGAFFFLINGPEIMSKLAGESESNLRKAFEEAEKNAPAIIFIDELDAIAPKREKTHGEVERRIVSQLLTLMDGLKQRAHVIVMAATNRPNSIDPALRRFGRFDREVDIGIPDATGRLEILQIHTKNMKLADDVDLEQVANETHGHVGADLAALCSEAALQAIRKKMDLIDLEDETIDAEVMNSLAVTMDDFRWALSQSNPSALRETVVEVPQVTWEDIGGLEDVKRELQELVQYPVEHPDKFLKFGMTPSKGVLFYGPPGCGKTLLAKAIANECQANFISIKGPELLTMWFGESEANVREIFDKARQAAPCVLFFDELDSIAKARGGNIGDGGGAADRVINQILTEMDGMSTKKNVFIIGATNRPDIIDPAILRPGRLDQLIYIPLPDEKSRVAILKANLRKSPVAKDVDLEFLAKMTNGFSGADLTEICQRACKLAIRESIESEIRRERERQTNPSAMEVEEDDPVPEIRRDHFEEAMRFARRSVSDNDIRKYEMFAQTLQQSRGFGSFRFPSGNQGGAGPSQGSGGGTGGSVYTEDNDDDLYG

binding result [1]: no binding
binding result (Hsc70): no binding
B1: gp78 (enzyme, human, UniProt Q9UKV5 1-643, looked up)
chain: MPLLFLERFPWPSLRTYTGLSGLALLGTIISAYRALSQPEAGPGEPDQLTASLQPEPPAPARPSAGGPRARDVAQYLLSDSLFVWVLVNTACCVLMLVAKLIQCIVFGPLRVSERQHLKDKFWNFIFYKFIFIFGVLNVQTVEEVVMWCLWFAGLVFLHLMVQLCKDRFEYLSFSPTTPMSSHGRVLSLLVAMLLSCCGLAAVCSITGYTHGMHTLAFMAAESLLVTVRTAHVILRYVIHLWDLNHEGTWEGKGTYVYYTDFVMELTLLSLDLMHHIHMLLFGNIWLSMASLVIFMQLRYLFHEVQRRIRRHKNYLRVVGNMEARFAVATPEELAVNNDDCAICWDSMQAARKLPCGHLFHNSCLRSWLEQDTSCPTCRMSLNIADNNRVREEHQGENLDENLVPVAAAEGRPRLNQHNHFFHFDGSRIASWLPSFSVEVMHTTNILGITQASNSQLNAMAHQIQEMFPQVPYHLVLQDLQLTRSVEITTDNILEGRIQVPFPTQRSDSIRPALNSPVERPSSDQEEGETSAQTERVPLDLSPRLEETLDFGEVEVEPSEVEDFEARGSRFSKSADERQRMLVQRKDELLQQARKRFLNKSSEDDAASESFLPSEGASSDPVTLRRRMLAAAAERRLQKQQTS
notes: also called AMFR; AMFR/gp78
